Tests used:
[1] = target: the molecule itself; experiment: negative stain EM, 2D class averages and 3D maps; self-association of protomers (hexamer)
Method: (§1) Next, we selected three designs: one C15 homo-pentamer (HALC5-15_262), one C18 homo-hexamer (HALC6-18_265) and one C33 homo-trimer (HALC3-33_343) for high-resolution single particle cryoEM characterization.
(§2) SEC fractions corresponding to the designs were concentrated in TBS prior to negative stain EM screening. Samples were then immediately diluted 5 to 150 times in TBS buffer (25 mM Tris, 100 mM NaCl, pH 8.0) depending on the concentration of the samples. A final volume of 5 μL was applied on negatively glow discharged, carbon-coated 400-mesh copper grids (01844-F, TedPella Inc.), then washed with Milli-Q Water and stained using 0.75% uranyl formate as previously described (44). Air-dried grids were then imaged on either a FEI Talos™ L120C TEM (FEI Thermo Scientific) equipped with a 4K×4K Gatan OneView™ camera at a magnification of 57,000× and pixel size of 2.5 Å. Micrographs collection was automated using EPU™ software (FEI Thermo Scientific) and were imported into CisTEM™ software (45) or cryoSPARC™ software (46, 47). CTF estimation was done with CTFFIND4 and a circular blob picker was used to select particles which were then subjected to 2D classification. Ab initio reconstruction and homogeneous refinement in Cn symmetry were used to generate 3D electron density maps. All EM maps can be found in supplementary data.

[2] = target: the molecule itself; experiment: negative stain EM, 2D class averages and 3D maps; self-association of protomers (pentamer)
Method: as §1, §2

[3] = target: the molecule itself; experiment: negative stain EM, 2D class averages and 3D maps; self-association of protomers (heptamer)
Method: as §1, §2

[4] = target: the molecule itself; experiment: X-ray crystal structure; self-association of protomers
Method: (§3) 19 designs were chosen to undergo crystallization screens. Each design was expressed as described above in 0.5 L cultures. […] Following SEC, 2 mM of NiCl₂ was added and the solution was incubated overnight at 37° C. Following cleavage, the solutions containing the cleaved protein products were incubated with 1 mL Ni-NTA resin to bind any uncleaved product, and the flow through was collected. Following SEC into Crystallization buffer (20 mM Tris, 50 mM NaCl, pH 8.0), each sample was concentrated to approximately 15 mg mL⁻¹. The following sitting drop broad screens were set up at room temperature with three protein:crystallization condition ratios (1:1, 1:2, 2:1) using the mosquito pipetting instrument (sptlabtech): Midas™ (Molecular Dimensions), Proplex™ (Molecular Dimensions), JCSG+™ (Molecular Dimensions), Morpheus™ (Molecular Dimensions), Pact Premier™ (Molecular Dimensions), LMB™ (Molecular Dimensions), Index™ (Hampton Research) and PGA™ (Molecular Dimensions). Each was monitored weekly for crystal growth using the JANSi UVEX imaging system.
Where required, crystals were cryoprotected with 20% glycerol or 25% ethylene glycol prior to flash freezing in liquid nitrogen. Data collection was done using the Advanced Photon Source synchrotron. Images were integrated using XDS 20220110 (37). Aimless (38) was used for scaling and merging. Phaser™ 2.8 (39) was used for molecular replacement using the design models as search models (either monomer or oligomeric complex). Models were built using Coot 0.9.8 (40) and refined with Phenix ™ refine from Phenix™ 1.20 (41) and RefMac™ (42) from CCP4 7.1 (38) suite. All structures were validated using MolProbity™ 4.5.1(43).

[5] = target: the molecule itself; experiment: X-ray crystallography; self-association of protomers (homo-dimer)
Method: as §3
Where required, crystals were cryoprotected with 20% glycerol or 25% ethylene glycol prior to flash freezing in liquid nitrogen. Data collection was done using the Advanced Photon Source synchrotron. Images were integrated using XDS 20220110 (37). Aimless (38) was used for scaling and merging. […]

[6] = target: the molecule itself; experiment: single particle cryoEM; self-association of protomers
Method: The designs were relaxed into experimental cryoEM electron densities using Rosetta FastRelax and SetupForDensityScoring.
For some samples, multiple blots were applied in order to obtain the best particle density. All grids were blotted using a blot force of 0 and 5.5 second blot time at 100% humidity and 4° C. and plunge-frozen in liquid ethane using a Vitrobot™ Mark IV (FEI Thermo Scientific). All cryoEM grids were screened on a Glacios™ transmission electron microscope (FEI Thermo Scientific) operated at 200 kV and equipped with a Gatan K2 or K3 Summit direct detector. […] Movies were acquired in counting mode fractionated in 50 frames of 200 ms at 8.5 e-/pixel/sec for a total dose of ˜65e-/Å².

B1: HALC6_220 (other)
chain: PPIPPPSFKLEISPAFLELVQLVIDLHPNDEEVRKELIENLISRIGKSDNVPPETISLDISEAALELFEWIFEKFPDDEDVHRRLIESFINKRKFSSSSPLDTPSLDISERFIELVKYILEKYPEDEEIKQKLIDSLLNLLGSY
notes: De novo designed protomer; pair is protomer with identical protomer (C6 homo-hexamer); not shown: C-terminal His tag
binding result [1]: binds

B2: HALC25-5_341 (other)
chain: EGAAIAENLATAYQGIGETLPSLQDLRVLHLSVIFSAEGSSPEGAAIAENLATAYQGIGETLPSLQDLRVLHLSVIFSAEGSSPEGAAIAENLATAYQGIGETLPSLQDLRVLHLSVIFSAEGSSPEGAAIAENLATAYQGIGETLPSLQDLRVLHLSVIFSAEGSSPEGAAIAENLATAYQGIGETLPSLQDLRVLHLSVIFSAEGSSP
notes: De novo designed protomer; pair is protomer with identical protomer (C25 internal symmetry, homo-pentamer); not shown: C-terminal His tag
binding result [2]: binds

B3: HALC42-7_351 (other)
chain: PSLTLNDFGDLGKGLGEGLQGMENLEKLQLTITLKLTVSTPSLTLNDFGDLGKGLGEGLQGMENLEKLQLTITLKLTVSTPSLTLNDFGDLGKGLGEGLQGMENLEKLQLTITLKLTVSTPSLTLNDFGDLGKGLGEGLQGMENLEKLQLTITLKLTVSTPSLTLNDFGDLGKGLGEGLQGMENLEKLQLTITLKLTVSTPSLTLNDFGDLGKGLGEGLQGMENLEKLQLTITLKLTVST
notes: De novo designed protomer; pair is protomer with identical protomer (C42 internal symmetry, homo-heptamer); not shown: C-terminal His tag
binding result [3]: binds

B4: HALC4_135 (other)
chain: MEKFKEQLLEEVKKIVLETMTKVMEHLEKWFVTLAEIIITKSEEKLEELKETMEKSIEELRKEAE
notes: De novo designed protomer; pair is protomer with identical protomer (C4 homo-tetramer)
binding result [4]: binds

B5: HALC2_062 (other)
chain: MARVEYSYEKLNDTHYKLKLKVTYEYRKSPEARRLAEDLVQAFVDALSSLPFITVEYEVEEVEVE
notes: De novo designed protomer; the entry is one protomer and the pair is protomer with identical protomer (C2 homo-dimer)
binding result [5]: binds

B6: HALC3_109 (other)
chain: REEIEEAVKEAELKVLAIVLVALRSVSHYEPLSRLYESFLDALKKALSEEELKEVEKEAERIEKK
notes: De novo designed protomer; pair is protomer with identical protomer (C3 homo-trimer)
binding result [4]: binds

B7: HALC15-5_262 (other)
chain: DVPLTDPKNLNEFLYALGEGLKGMKNLKKLTLTFPSNPLTIPGDISEGFRELGEGLKGMKNLEELTVTFNDVPLTDPKNLNEFLYALGEGLKGMKNLKKLTLTFPSNPLTIPGDISEGFRELGEGLKGMKNLEELTVTFNDVPLTDPKNLNEFLYALGEGLKGMKNLKKLTLTFPSNPLTIPGDISEGFRELGEGLKGMKNLEELTVTFN
notes: De novo designed protomer; pair is protomer with identical protomer (C15 internal symmetry, homo-pentamer); also called HALC5-15_262; HALC5-15 262; not shown: C-terminal His tag
binding result [6]: binds

B8: HALC24-6_316 (other)
chain: SKEKLGIQQDLFEGIIATLLSHKDPRVLYLMVTILKLTGSSPSKEKLGIQQDLFEGIIATLLSHKDPRVLYLMVTILKLTGSSPSKEKLGIQQDLFEGIIATLLSHKDPRVLYLMVTILKLTGSSPSKEKLGIQQDLFEGIIATLLSHKDPRVLYLMVTILKLTGSSP
notes: De novo designed protomer; pair is protomer with identical protomer (C24 internal symmetry, homo-hexamer); not shown: C-terminal His tag
binding result [1]: binds

B9: HALC2_068 (other)
chain: MIKVPEDLERIGRELRARGLDTKRLLEEGPKLYPELSIPDLMAIALYDHLNLDPEFLYRLLQQSR
notes: De novo designed protomer; pair is protomer with identical protomer (C2 homo-dimer)
binding result [4]: binds

B10: HALC33-3_343 (other)
chain: PSNWPEVAKYFDLGKALKPIGEGLQNLKNLKHLDLSFSFSLELYPGLPSNWPEVAKYFDLGKALKPIGEGLQNLKNLKHLDLSFSFSLELYPGLPSNWPEVAKYFDLGKALKPIGEGLQNLKNLKHLDLSFSFSLELYPGLPSNWPEVAKYFDLGKALKPIGEGLQNLKNLKHLDLSFSFSLELYPGLPSNWPEVAKYFDLGKALKPIGEGLQNLKNLKHLDLSFSFSLELYPGLPSNWPEVAKYFDLGKALKPIGEGLQNLKNLKHLDLSFSFSLELYPGLPSNWPEVAKYFDLGKALKPIGEGLQNLKNLKHLDLSFSFSLELYPGLPSNWPEVAKYFDLGKALKPIGEGLQNLKNLKHLDLSFSFSLELYPGLPSNWPEVAKYFDLGKALKPIGEGLQNLKNLKHLDLSFSFSLELYPGLPSNWPEVAKYFDLGKALKPIGEGLQNLKNLKHLDLSFSFSLELYPGLPSNWPEVAKYFDLGKALKPIGEGLQNLKNLKHLDLSFSFSLELYPGL
notes: De novo designed protomer; pair is protomer with identical protomer (C33 internal symmetry, homo-trimer); not shown: C-terminal His tag
binding result [6]: binds

B11: HALC20-5_308 (other)
chain: SLGWKVLLHLDLTWYPGADYTIDHDDMTRAARALAHGFERAAHSFAEAIGSTGSLGWKVLLHLDLTWYPGADYTIDHDDMTRAARALAHGFERAAHSFAEAIGSTGSLGWKVLLHLDLTWYPGADYTIDHDDMTRAARALAHGFERAAHSFAEAIGSTGSLGWKVLLHLDLTWYPGADYTIDHDDMTRAARALAHGFERAAHSFAEAIGSTG
notes: De novo designed protomer; pair is protomer with identical protomer (C20 internal symmetry, homo-pentamer); not shown: C-terminal His tag
binding result [2]: binds

B12: HALC3_104 (other)
chain: KRIDEIESKLKHLEEFTTHLIKLMETMLELLKLVSDGKSDSEEYKELLEKAEEYLKQATEAAKKI
notes: as for B6
binding result [4]: binds
